These are literature values, as cited in PMC6605686.

The data set deals with Glu325 (UniProt position 325, TLHMFEVPFLL). As to the kind of experiment: kinetics. As to conditions: sugar binding to LacY; apparent pK of galactoside affinity.

With “Lactose permease (LacY) (Escherichia coli)”, the pKa result is on record as “∼10.5”.
